How the values were obtained:
microtubules [1] = molecular target: microtubules (UniProt P02550)
microtubules [2] = molecular target: microtubules (UniProt P02550); remark: listed apart in the source
F-actin = F-actin (UniProt P68135); assay: co-sedimentation; YFP fluorescence of pellet and supernatant; increasing F-actin concentrations; 5 mM Tris pH 7.4, 100 mM KCl, 0.04% NaN3, 2 mM MgCl2; 20,000 g, 30 min, 4 °C

Sequence of microtubules (P02550 whole entry, chain 1 of 2): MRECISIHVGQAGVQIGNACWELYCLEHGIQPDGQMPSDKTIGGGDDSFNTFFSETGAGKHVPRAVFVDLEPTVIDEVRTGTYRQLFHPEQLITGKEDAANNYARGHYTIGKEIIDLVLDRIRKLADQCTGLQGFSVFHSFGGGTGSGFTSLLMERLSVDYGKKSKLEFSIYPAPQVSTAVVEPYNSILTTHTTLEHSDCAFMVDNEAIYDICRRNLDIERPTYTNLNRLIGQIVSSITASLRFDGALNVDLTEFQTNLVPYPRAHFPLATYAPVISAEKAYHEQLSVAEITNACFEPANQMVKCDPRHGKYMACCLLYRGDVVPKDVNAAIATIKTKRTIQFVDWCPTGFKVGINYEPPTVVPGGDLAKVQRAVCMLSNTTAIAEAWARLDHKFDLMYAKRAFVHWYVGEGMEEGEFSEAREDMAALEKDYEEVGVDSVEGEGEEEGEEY
Sequence of microtubules (P02554 whole entry, chain 2 of 2, further chain): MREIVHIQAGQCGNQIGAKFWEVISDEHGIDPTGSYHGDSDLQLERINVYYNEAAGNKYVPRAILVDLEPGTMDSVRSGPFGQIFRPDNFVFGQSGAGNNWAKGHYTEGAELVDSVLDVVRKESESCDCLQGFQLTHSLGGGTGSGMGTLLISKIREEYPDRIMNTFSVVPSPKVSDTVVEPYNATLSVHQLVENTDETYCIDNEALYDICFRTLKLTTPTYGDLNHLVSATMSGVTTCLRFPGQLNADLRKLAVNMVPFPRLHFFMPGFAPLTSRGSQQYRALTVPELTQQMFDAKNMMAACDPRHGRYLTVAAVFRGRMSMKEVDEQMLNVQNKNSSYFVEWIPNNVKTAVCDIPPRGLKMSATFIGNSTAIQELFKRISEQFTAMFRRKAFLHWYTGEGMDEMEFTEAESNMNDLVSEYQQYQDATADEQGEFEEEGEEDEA

myosin-1D tail (amino acids 717–1113) (domain or fragment)
cold-induced depolymerization assays of microtubules, IC50 (microtubules [1]): 20 nM
inhibition of the cold-induced depolymerization of microtubules, IC50 (microtubules [2]): 15 nM
Kd (F-actin): 12000 nM
